In article PMC6358683:

Tests used:
[1] = target: HA of A/New Caledonia/20/1999 (influenza A virus A/New Caledonia/20/1999) (UniProt Q6WG00)
[2] = target: HA of A/Puerto Rico/8/1934 (influenza A virus A/Puerto Rico/8/1934) (UniProt P03452)
[3] = target: C05 V110P (human); experiment: BLI

Substance | HAI, antibody concentration at the endpoint titer; virus A/New Caledonia/20/1999 [1] [µg/mL] | HAI, antibody concentration at the endpoint titer; virus A/Puerto Rico/8/1934 [2] [µg/mL] | Kd [3] [nM]
C05 V110P (antibody) | 0.2 | – | –
C05 V110P-A117E (antibody) | 0.2 | > 100 | –
HA of A/Puerto Rico/8/1934 (from UniProt P03452) (natural protein) | – | – | 2300
